In patent US20190367615A1 (BEIJING HANMI PHARM, published 2019):

Tests used:
[1] = target: T1, Recombinant human PD-1-Fc (human, UniProt Q15116 25-167, limits assumed); assay: competition ELISA, PD-1-Fc coated, competitor biotin-labeled PD-L1
T1 construct: also called recombinant human PD-1-Fc protein; not shown: Fc part
Procedure: (§1) Recombinant human PD-1-Fc was coated on a 96-well high-absorbing ELISA plate with a carbonate buffer solution with pH 9.6, the coating concentration was 1 μg/mL, the coating amount was 100 μL per well, and the coating was carried at 4° C. out overnight. The plate was washed five times with PBST and blocked with 300 μL/well of PBST containing 1% BSA and incubated at 25° C. for 1 hour. The plate was washed five times with PBST. The positive control and the anti-human PD-1 antibody sample were added, 50 μL per well. […] The plate was washed five times with PBST. Then, Streptavidin-HRP (BD Pharmingen, Catalog Number 554066) 1:1000 diluted in PBST containing 1% BSA was added, 100 μL per well, incubated at 25° C. for 1 hour. The plate was washed five times with PBST. 100 μL/well of colorimetric substrate TMB was added and incubated at room temperature for 10 minutes. Color development was terminated by adding 100 μL/well of 1 M H₂SO₄. The absorbance at 450 nm was read on a microplate reader.

[2] = target: Recombinant human CD28 (Sino Biological Inc.) (human, UniProt P10747 19-152); assay: binding specificity ELISA, coated recombinant human CD28, anti-human IgG-HRP
Chain of Recombinant human CD28 (Sino Biological Inc.) (P10747 19-152 limits assumed): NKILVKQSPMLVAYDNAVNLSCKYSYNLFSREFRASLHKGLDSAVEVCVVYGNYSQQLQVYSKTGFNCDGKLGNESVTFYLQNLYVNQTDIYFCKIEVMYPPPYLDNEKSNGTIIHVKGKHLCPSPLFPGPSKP
Procedure: (§2) The plate was washed five times with PBST and blocked with 300 μL/well of PBST containing 1% BSA and incubated at 25° C. for 1 hour. The plate was washed five times with PBST. […] The plate was washed five times with PBST. Then, horseradish peroxidase-labeled anti-human IgG antibody (Chemicon, Catalog Number AP309P) 1:2000 diluted in PBST containing 1% BSA was added, 100 μL was added to each well, incubated at 25° C. for 1 hour. The plate was washed five times with PBST. 100 μL/well of colorimetric substrate TMB was added and incubated at room temperature for 10 minutes. Color development was terminated by adding 100 μL/well of 1 M H₂SO₄. The absorbance at 450 nm was read on a microplate reader.

[3] = target: T2, Recombinant human CD80 (Sino Biological Inc.) (human, UniProt P33681 35-242); assay: binding specificity ELISA, coated recombinant human CD80, anti-human IgG-HRP
T2 sequence (looked up): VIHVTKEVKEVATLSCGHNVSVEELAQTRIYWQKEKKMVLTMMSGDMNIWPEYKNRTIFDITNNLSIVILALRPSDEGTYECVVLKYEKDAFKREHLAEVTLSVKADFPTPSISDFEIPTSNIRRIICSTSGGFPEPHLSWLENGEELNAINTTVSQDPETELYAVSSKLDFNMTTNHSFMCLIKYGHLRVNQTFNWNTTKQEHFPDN
Procedure: as §2

[4] = target: T3, Recombinant human B7-H2 (Sino Biological Inc.) (human, UniProt O75144 19-256, limits assumed); assay: binding specificity ELISA, coated recombinant human B7-H2, anti-human IgG-HRP
T3 sequence (looked up): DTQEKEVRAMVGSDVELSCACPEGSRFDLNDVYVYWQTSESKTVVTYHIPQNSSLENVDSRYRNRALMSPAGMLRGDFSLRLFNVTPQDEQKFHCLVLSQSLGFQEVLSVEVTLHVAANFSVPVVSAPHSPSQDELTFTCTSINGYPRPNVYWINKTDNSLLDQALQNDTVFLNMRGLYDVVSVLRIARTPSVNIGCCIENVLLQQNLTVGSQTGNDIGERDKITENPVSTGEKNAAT
Procedure: as §2

[5] = target: T4, Recombinant human CTLA4 (Sino Biological Inc.) (human, UniProt P16410 36-162); assay: binding specificity ELISA, coated recombinant human CTLA4, anti-human IgG-HRP
T4 sequence (looked up): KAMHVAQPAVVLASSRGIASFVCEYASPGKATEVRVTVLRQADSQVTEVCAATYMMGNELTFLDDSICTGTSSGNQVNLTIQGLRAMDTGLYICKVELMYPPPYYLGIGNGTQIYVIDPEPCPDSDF
Procedure: as §2

[6] = target: Recombinant human PD-L1 (Sino Biological Inc.) (human, UniProt Q9NZQ7 19-239); assay: binding specificity ELISA, coated recombinant human PD-L1, anti-human IgG-HRP
Chain of Recombinant human PD-L1 (Sino Biological Inc.) (Q9NZQ7 19-239 limits assumed): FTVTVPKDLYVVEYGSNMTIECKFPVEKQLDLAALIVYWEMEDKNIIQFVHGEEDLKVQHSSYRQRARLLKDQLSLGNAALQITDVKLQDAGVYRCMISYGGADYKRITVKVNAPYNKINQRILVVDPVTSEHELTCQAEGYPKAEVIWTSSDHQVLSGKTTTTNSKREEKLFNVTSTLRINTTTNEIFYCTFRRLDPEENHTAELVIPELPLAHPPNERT
Procedure: as §2

[7] = target: T5, Recombinant human PD-1 (Sino Biological Inc., Catalog Number 10377-H08H) (human, UniProt Q15116 25-167); assay: species specificity ELISA, coated recombinant human PD-1 (1 ug/mL), anti-human IgG-HRP, OD450nm
T5 construct: Bought protein; also called antigen PD-1
T5 sequence (Q15116 25-167 limits assumed): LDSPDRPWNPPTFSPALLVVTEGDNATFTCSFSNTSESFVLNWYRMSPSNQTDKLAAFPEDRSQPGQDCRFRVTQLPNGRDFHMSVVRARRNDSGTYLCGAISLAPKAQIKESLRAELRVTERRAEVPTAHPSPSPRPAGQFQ
Procedure: Recombinant human PD-1, monkey PD-1, rat PD-1 and mouse PD-1 (all purchased from Sino Biological Inc.), were coated on a 96-well high-absorbing ELISA plate with a carbonate buffer solution with pH 9.6, the coating concentration was 1 μg/mL, the coating amount was 100 μL per well, and the coating was carried out at 4° C. overnight. The plate was washed five times with PBST and blocked with 300 μL/well of PBST containing 1% BSA, and then incubated at 25° C. for 1 hour. The plate was washed five times with PBST. […] The plate was washed five times with PBST. Then, horseradish peroxidase-labeled anti-human IgG antibody (Chemicon, Catalog Number AP309P) 1:2000 diluted in PBST containing 1% BSA was added, 100 μL per well, incubated at 25° C. for 1 hour. The plate was washed five times with PBST. 100 μL/well of colorimetric substrate TMB was added and incubated at room temperature for 10 minutes. Color development was terminated by adding 100 μL/well of 1 M H₂SO₄: The absorbance at 450 nm was read on a microplate reader.

[8] = target: T1, Recombinant human PD-1-Fc; assay: competition ELISA, coated human PD-1-Fc, blocked ligand biotin-labeled PD-L1 (final 10 nM), streptavidin-HRP, OD450nm [panel PD-1/PD-L1 Blocking Activity]
Procedure: as §1

T1 sequence (Q15116 25-167 limits assumed): as above

B1: anti-human PD-1 chimeric monoclonal antibody (antibody, human IgG4 S228P, kappa, V domains shown)
VH: EVQLQESGGGLVKPGGSLKLSCAASGFTFSSYGMSWVRQTPEKRLEWVASISGGGRYTYYPDSMKGRFTISRDNAKNNLHLQMSSLRSEDTALYYCVYEYFYTMDYWGQGTSVTVSS
VL: DIVLTQSPATLSVTPGDSVSLSCRANQSISNNLHWYQQRSHESPRLLIRFASQSISGIPSRFSGSGSGTDFTLSINSVETEDFGMYFCQQSDNWPLTFGAGTKLEIKR
notes: expressed in 293F cells; also called Anti-human PD-1 Chimeric Antibody; chimeric anti-human PD-1 monoclonal antibody
IC50 [1]: 1.45 nM | binding result [2]: no binding | binding result [3]: no binding | binding result [4]: no binding | binding result [5]: no binding | binding result [6]: no binding | EC50 [7]: 0.092 nM | IC50 [8]: 0.972 nM
